Laboratory results published in US20180177763A1, “SMALL MOLECULES THAT MIMIC OR ANTAGONIZE ACTIONS OF GRANULOCYTE COLONY-STIMULATING-FACTOR (G-CSF)” (published 2018).

Assays:
[1] = biological target: T1, Granulocyte-colony stimulating factor receptor (G-CSF-R) (human); experiment: saturation binding of radioligand to THP-1 monocytic cells (value in the text differs from Table 2)
T1 chain: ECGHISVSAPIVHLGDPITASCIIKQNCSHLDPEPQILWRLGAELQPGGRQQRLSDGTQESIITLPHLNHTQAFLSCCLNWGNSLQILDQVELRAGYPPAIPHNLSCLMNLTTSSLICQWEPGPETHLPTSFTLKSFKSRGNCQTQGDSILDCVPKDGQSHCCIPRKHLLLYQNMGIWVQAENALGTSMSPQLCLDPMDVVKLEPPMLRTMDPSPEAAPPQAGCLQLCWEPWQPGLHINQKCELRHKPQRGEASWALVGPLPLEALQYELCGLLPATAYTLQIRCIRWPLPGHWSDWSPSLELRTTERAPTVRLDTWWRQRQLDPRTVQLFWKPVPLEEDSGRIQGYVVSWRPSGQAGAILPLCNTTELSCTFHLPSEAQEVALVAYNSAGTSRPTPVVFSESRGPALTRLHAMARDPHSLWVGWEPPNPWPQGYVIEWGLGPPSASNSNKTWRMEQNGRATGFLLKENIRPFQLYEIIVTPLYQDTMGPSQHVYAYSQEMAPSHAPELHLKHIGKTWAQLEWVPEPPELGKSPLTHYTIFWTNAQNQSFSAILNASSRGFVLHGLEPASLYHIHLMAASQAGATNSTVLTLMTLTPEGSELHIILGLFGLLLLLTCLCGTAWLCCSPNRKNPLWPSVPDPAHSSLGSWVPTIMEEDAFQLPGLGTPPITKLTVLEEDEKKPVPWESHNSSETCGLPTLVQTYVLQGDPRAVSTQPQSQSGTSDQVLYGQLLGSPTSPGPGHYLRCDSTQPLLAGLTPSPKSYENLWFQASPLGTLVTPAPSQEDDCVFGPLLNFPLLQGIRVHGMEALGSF
Protocol: (§1) Binding of [¹²⁵I]-G-CSF was measured using previously described method (Kondo, S., et al. Eur. J. Haematol. 1991, 46, 223-30) with some modifications (Pennington, A., et al. Alzheimer's Disease and Parkinsonism 2013, 3, 121). [¹²⁵I]-G-CSF (specific activity 46.55 TBq/mmol) was purchased from Perkin Elmer (Waltham, Mass.). Cells were incubated in 180 μL of binding medium containing 0.2% BSA, 5 mM MgSO₄, and 50 mM Hepes, pH 7.2 at a concentration of 1.5×10⁷ cells/mL and the appropriate concentration of [¹²⁵I]-G-CSF. Incubations were carried out at room temperature with periodic shaking to ensure continuous mixing of cells and radioactive ligand. […] Nonspecific binding of [¹²⁵I]-G-CSF was measured by incubations in the presence of a 100-fold molar excess of unlabeled G-CSF. […] Bound and free ligand activities were counted after cutting tubes in two pieces and placing the tips and tops, respectively into separate scintillation vials. […] The specific binding was determined from the amount of bound [¹²⁵I]-G-CSF blocked by competition with excess unlabeled G-CSF. The parameters of saturation binding experiments including dissociation constant (Kd), maximum binding capacity (Bmax) and binding cooperativity (h) were calculated with GraphPad Prism 5 software (La Jolla, Calif.) by using nonlinear regression analysis. […]

[2] = biological target: T1, Granulocyte-colony stimulating factor …; experiment: saturation binding of radioligand to SH-SY5Y neuronal cells, nonlinear regression
Protocol: as §1

[3] = biological target: T1, Granulocyte-colony stimulating factor …; experiment: saturation binding of radioligand to THP-1 monocytic cells, nonlinear regression
Protocol: as §1

[4] = biological target: T1, Granulocyte-colony stimulating factor …; experiment: saturation binding of radioligand to SH-SY5Y neuronal cells (value in the text differs from Table 2)
Protocol: as §1

Kd [1]: 57.5 pM
Kd [2]: 608 pM
Kd [3]: 53.8 pM
Kd [4]: 607 pM
B1: [125I]-G-CSF (ligand)
chain: TPLGPASSLPQSFLLKCLEQVRKIQGDGAALQEKLVSECATYKLCHPEELVLLGHSLGIPWAPLSSCPSQALQLAGCLSQLHSGLFLYQGLLQALEGISPELGPTLDTLQLDVADFATTIWQQMEELGMAPALQPTQGAMPAFASAFQRRAGGVLVASHLQSFLEVSYRVLRHLAQP
modifications: 125I radiolabel (specific activity 46.55 TBq/mmol); labelled residue not stated
